IntAct's records for PubMed 31515488

B1: Cyclin-dependent kinase 4 (Homo sapiens), P11802 (parent)
chain: MATSRYEPVAEIGVGAYGTVYKARDPHSGHFVALKSVRVPNGGGGGGGLPISTVREVALLRRLEAFEHPNVVRLMDVCATSRTDREIKVTLVFEHVDQDLRTYLDKAPPPGLPAETIKDLMRQFLRGLDFLHANCIVHRDLKPENILVTSGGTVKLADFGLARIYSYQMALTPVVVTLWYRAPEVLLQSTYATPVDMWSVGCIFAEMFRRKPLFCGNSEADQLGKIFDLIGLPPEDDWPRDVSLPRGAFPPRGPRPVQSVVPEMEESGAQLLLEMLTFNPHKRISAFRALQHSYLHKDEGNPE

Variants of: B1
Conditions: with ccnd1_human CCND1, P24385
Chain of ccnd1_human CCND1, P24385 (P24385 whole entry): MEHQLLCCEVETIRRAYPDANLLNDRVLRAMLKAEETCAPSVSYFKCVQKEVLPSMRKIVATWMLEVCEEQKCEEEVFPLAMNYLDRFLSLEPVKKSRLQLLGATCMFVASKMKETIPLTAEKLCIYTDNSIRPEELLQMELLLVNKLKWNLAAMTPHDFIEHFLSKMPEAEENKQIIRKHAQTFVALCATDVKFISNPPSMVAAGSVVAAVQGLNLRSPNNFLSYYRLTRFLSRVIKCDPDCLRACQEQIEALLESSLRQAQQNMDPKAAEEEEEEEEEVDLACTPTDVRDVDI

Row | Variant | effect of a mutation on the interaction
1 | MATSRYEPVAEIGVGAYGTVYKAHDPHSGHFVALKSVRVPNGGGGGGGLPISTVREVALLRRLEAFEHPNVVRLMDVCATSRTDREIKVTLVFEHVDQDLRTYLDKAPPPGLPAETIKDLMRQFLRGLDFLHANCIVHRDLKPENILVTSGGTVKLADFGLARIYSYQMALTPVVVTLWYRAPEVLLQSTYATPVDMWSVGCIFAEMFRRKPLFCGNSEADQLGKIFDLIGLPPEDDWPRDVSLPRGAFPPRGPRPVQSVVPEMEESGAQLLLEMLTFNPHKRISAFRALQHSYLHKDEGNPE [R24H] | with no effect
2 | MATSRYEPVAEIGVGAYGTVYKARDPHSGHFVALKSVRVPNGGGGGGGLPISTVREVALLRRLEAFEHPNVVRLMDVCATSRTDREIKVTLVFEHVDQDLRTYLDKAPPPGLPAETIKDLMRQFLRGLDFLHANCIVHRDLKPENILVTSGGTVKLADFGLARIYSYQMALTPVVVTLWYRAPEVLLQSTYATPVDMWSVGCIFAEMFRRKPLFCGNSEADQLGKIFDLIGLPPEDDWPRDVSLPRGAFPPRGPHPVQSVVPEMEESGAQLLLEMLTFNPHKRISAFRALQHSYLHKDEGNPE [R255H] | with no effect
3 | MATSRYEPVAEIGVGAYGTVYKARDPHSGHFVALKSVRVPNGGGGGGGLPINTVREVALLRRLEAFEHPNVVRLMDVCATSRTDREIKVTLVFEHVDQDLRTYLDKAPPPGLPAETIKDLMRQFLRGLDFLHANCIVHRDLKPENILVTSGGTVKLADFGLARIYSYQMALTPVVVTLWYRAPEVLLQSTYATPVDMWSVGCIFAEMFRRKPLFCGNSEADQLGKIFDLIGLPPEDDWPRDVSLPRGAFPPRGPRPVQSVVPEMEESGAQLLLEMLTFNPHKRISAFRALQHSYLHKDEGNPE [S52N] | with no effect

Variants of: B1
Conditions: with ccnd3_human CCND3, P30281
Chain of ccnd3_human CCND3, P30281 (P30281 whole entry): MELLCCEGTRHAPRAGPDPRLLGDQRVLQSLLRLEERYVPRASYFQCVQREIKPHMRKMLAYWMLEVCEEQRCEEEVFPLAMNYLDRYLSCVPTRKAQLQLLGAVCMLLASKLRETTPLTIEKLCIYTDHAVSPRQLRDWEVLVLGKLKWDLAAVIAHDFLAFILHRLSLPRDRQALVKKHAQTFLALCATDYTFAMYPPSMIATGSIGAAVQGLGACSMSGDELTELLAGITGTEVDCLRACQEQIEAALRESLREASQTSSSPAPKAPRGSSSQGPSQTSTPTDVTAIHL

Row | Variant | effect of a mutation on the interaction
4 | MATSRYEPVAEIGVGAYGTVYKARDPHSGHFVALKSVRVPNGGGGGGGLPISTVREVALLRRLEAFEHPNVVRLMDVCATSRTDREIKVTLVFEHVDQDLRTYLDKAPPPGLPAETIKDLMRQFLRGLDFLHANCIVHRDLKPENILVTSGGTVKLADFGLARIYSYQMALTPVVVTLWYRAPEVLLQSTYATPVDMWSVGCIFAEMFRRKPLFCGNSEADQLGKIFDLIGLPPEDDWPRDVSLPRGAFPPRGPHPVQSVVPEMEESGAQLLLEMLTFNPHKRISAFRALQHSYLHKDEGNPE [R255H] | with no effect
5 | MATSRYEPVAEIGVGAYGTVYKARDPHSGHFVALKSVRVPNGGGGGGGLPINTVREVALLRRLEAFEHPNVVRLMDVCATSRTDREIKVTLVFEHVDQDLRTYLDKAPPPGLPAETIKDLMRQFLRGLDFLHANCIVHRDLKPENILVTSGGTVKLADFGLARIYSYQMALTPVVVTLWYRAPEVLLQSTYATPVDMWSVGCIFAEMFRRKPLFCGNSEADQLGKIFDLIGLPPEDDWPRDVSLPRGAFPPRGPRPVQSVVPEMEESGAQLLLEMLTFNPHKRISAFRALQHSYLHKDEGNPE [S52N] | with no effect

Variants of: B1
Conditions: with cdn2c_human CDKN2C

Row | Variant | effect of a mutation on the interaction
6 | MATSRYEPVAEIGVGAYGTVYKARDPHSGHFVALKSVRVPNGGGGGGGLPISTVREVALLRRLEAFEHPNVVRLMDVCATSRTDREIKVTLVFEHVDQDLRTYLDKAPPPGLPAETIKDLMRQFLRGLDFLHANCIVHRDLKPENILVTSGGTVKLADFGLARIYSYQMALTPVVVTLWYRAPEVLLQSTYATPVDMWSVGCIFAEMFRRKPLFCGNSEADQLGKIFDLIGLPPEDDWPRDVSLPRGAFPPRGPHPVQSVVPEMEESGAQLLLEMLTFNPHKRISAFRALQHSYLHKDEGNPE [R255H] | with no effect
7 | MATSRYEPVAEIGVGAYGTVYKARDPHSGHFVALKSVRVPNGGGGGGGLPINTVREVALLRRLEAFEHPNVVRLMDVCATSRTDREIKVTLVFEHVDQDLRTYLDKAPPPGLPAETIKDLMRQFLRGLDFLHANCIVHRDLKPENILVTSGGTVKLADFGLARIYSYQMALTPVVVTLWYRAPEVLLQSTYATPVDMWSVGCIFAEMFRRKPLFCGNSEADQLGKIFDLIGLPPEDDWPRDVSLPRGAFPPRGPRPVQSVVPEMEESGAQLLLEMLTFNPHKRISAFRALQHSYLHKDEGNPE [S52N] | with no effect

Variants of: B1
Conditions: with ccnd2_human CCND2, P30279
Chain of ccnd2_human CCND2, P30279 (P30279 whole entry): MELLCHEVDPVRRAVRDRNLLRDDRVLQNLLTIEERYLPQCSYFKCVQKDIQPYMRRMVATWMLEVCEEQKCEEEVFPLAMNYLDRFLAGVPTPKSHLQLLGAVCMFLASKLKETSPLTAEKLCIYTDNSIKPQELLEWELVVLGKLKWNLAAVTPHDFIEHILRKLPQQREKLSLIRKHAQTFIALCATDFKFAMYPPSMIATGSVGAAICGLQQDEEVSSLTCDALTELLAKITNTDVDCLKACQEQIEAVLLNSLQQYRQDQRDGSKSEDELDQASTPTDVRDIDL

Row | Variant | effect of a mutation on the interaction
8 | MATSRYEPVAEIGVGAYGTVYKARDPHSGHFVALKSVRVPNGGGGGGGLPISTVREVALLRRLEAFEHPNVVRLMDVCATSRTDREIKVTLVFEHVDQDLRTYLDKAPPPGLPAETIKDLMRQFLRGLDFLHANCIVHRDLKPENILVTSGGTVKLADFGLARIYSYQMALTPVVVTLWYRAPEVLLQSTYATPVDMWSVGCIFAEMFRRKPLFCGNSEADQLGKIFDLIGLPPEDDWPRDVSLPRGAFPPRGPHPVQSVVPEMEESGAQLLLEMLTFNPHKRISAFRALQHSYLHKDEGNPE [R255H] | with no effect

Variants of: B1
Conditions: with cdn2b_human CDKN2B

Row | Variant | effect of a mutation on the interaction
9 | MATSRYEPVAEIGVGAYGTVYKARDPHSGHFVALKSVRVPNGGGGGGGLPINTVREVALLRRLEAFEHPNVVRLMDVCATSRTDREIKVTLVFEHVDQDLRTYLDKAPPPGLPAETIKDLMRQFLRGLDFLHANCIVHRDLKPENILVTSGGTVKLADFGLARIYSYQMALTPVVVTLWYRAPEVLLQSTYATPVDMWSVGCIFAEMFRRKPLFCGNSEADQLGKIFDLIGLPPEDDWPRDVSLPRGAFPPRGPRPVQSVVPEMEESGAQLLLEMLTFNPHKRISAFRALQHSYLHKDEGNPE [S52N] | with no effect

Variants of: B1
Conditions: with ccnd1_human CCND1, P24385
Remark: another data set of the same source

Row | Variant | effect of a mutation on the interaction
10 | MATSRYEPVAEIGVGAYGTVYKARDPHSGHFVALKSVRVPNGGGGGGGLPISTVREVALLRRLEAFEHPNVVRLMDVCATSRTDREIKVTLVFEHVDQDLRTYLDKAPPPGLPAETIKDLMRQFLRGLDFLHANCIVHRDLKPENILVTSGGTVKLADFGLARIYSYQMALTPGVVTLWYRAPEVLLQSTYATPVDMWSVGCIFAEMFRRKPLFCGNSEADQLGKIFDLIGLPPEDDWPRDVSLPRGAFPPRGPRPVQSVVPEMEESGAQLLLEMLTFNPHKRISAFRALQHSYLHKDEGNPE [V174G] | with no effect

Variants of: B1
Conditions: with ccnd2_human CCND2, P30279
Remark: another data set of the same source

Row | Variant | effect of a mutation on the interaction
11 | MATSRYEPVAEIGVGAYGTVYKARDPHSGHFVALKSVRVPNGGGGGGGLPISTVREVALLRRLEAFEHPNVVRLMDVCATSRTDREIKVTLVFEHVDQDLRTYLDKAPPPGLPAETIKDLMRQFLRGLDFLHANCIVHRDLKPENILVTSGGTVKLADFGLARIYSYQMALTPGVVTLWYRAPEVLLQSTYATPVDMWSVGCIFAEMFRRKPLFCGNSEADQLGKIFDLIGLPPEDDWPRDVSLPRGAFPPRGPRPVQSVVPEMEESGAQLLLEMLTFNPHKRISAFRALQHSYLHKDEGNPE [V174G] | disrupting interaction strength

Variants of: B1
Conditions: with cdn2c_human CDKN2C
Remark: another data set of the same source

Row | Variant | effect of a mutation on the interaction
12 | MATSRYEPVAEIGVGAYGTVYKARDPHSGHFVALKSVRVPNGGGGGGGLPISTVREVALLRRLEAFEHPNVVRLMDVCATSRTDREIKVTLVFEHVDQDLRTYLDKAPPPGLPAETIKDLMRQFLRGLDFLHANCIVHRDLKPENILVTSGGTVKLADFGLARIYSYQMALTPGVVTLWYRAPEVLLQSTYATPVDMWSVGCIFAEMFRRKPLFCGNSEADQLGKIFDLIGLPPEDDWPRDVSLPRGAFPPRGPRPVQSVVPEMEESGAQLLLEMLTFNPHKRISAFRALQHSYLHKDEGNPE [V174G] | with no effect

Variants of: B1
Conditions: with ccnd3_human CCND3, P30281
Remark: another data set of the same source

Row | Variant | effect of a mutation on the interaction
13 | MATSRYEPVAEIGVGAYGTVYKARDPHSGHFVALKSVRVPNGGGGGGGLPISTVREVALLRRLEAFEHPNVVRLMDVCATSRTDREIKVTLVFEHVDQDLRTYLDKAPPPGLPAETIKDLMRQFLRGLDFLHANCIVHRDLKPENILVTSGGTVKLADFGLARIYSYQMALTPGVVTLWYRAPEVLLQSTYATPVDMWSVGCIFAEMFRRKPLFCGNSEADQLGKIFDLIGLPPEDDWPRDVSLPRGAFPPRGPRPVQSVVPEMEESGAQLLLEMLTFNPHKRISAFRALQHSYLHKDEGNPE [V174G] | with no effect
